Experimental data from publication PMC3679108, “A Novel Glucagon-Related Peptide (GCRP) and Its Receptor GCRPR Account for Coevolution of Their Family Members in Vertebrates” (PLoS ONE, 2013).
Read-outs that look alike come from different tables or passages of the source. Ends that are not written are not given here.

B1: Medaka GCRP (peptide)
peptide: HTDGMFTSDLTNYLDKMKAKNFVEWLAAIKQQE
B2: Human GIP (peptide)
peptide: YAEGTFISDYSIAMDKIHQQDFVNWLLAQKGKKNDWKHNITQ
B3: Chicken GLP1 (peptide)
peptide: HAEGTYTSDITSYLEGQAAKEFIAWLVNGR
modifications: also: unexplained 'a' after last residue
B4: Xenopus GCRP (peptide)
peptide: HSEGTFSSDLTRYLDKMKAKDFVQWLMN
B5: Chicken GLP2 (peptide)
peptide: HADGTFTSDINKILDDMAAKEFLKWLINTKVTQ
B6: Chicken GCRP (peptide)
peptide: HSEGTFTSDFTRYLDKMKAKDFVHWLINT
B7: Medaka GCG1 (peptide)
peptide: HSEGTFSNDYSKYLEDRKAQDFVRWLMNN
B8: Chicken GIP (peptide)
peptide: YSEATLASDYSRTMDNMLKKNFVEWLLARREKKSDNVIEPY

Columns and labels:
[1] = target: medaka GCRP receptor (medaka); experiment: radioligand binding; competitive displacement on HEK293T cells transfected with GCRPR (300 ng DNA/well, 12-well plates); 100,000 cpm 125I-chGCRP without or with various concentrations of cold peptides, 1 h, binding buffer (serum-free DMEM with 0.1% BSA, pH 7.4); IC50 by nonlinear regression
human GLP1R (human) = human GLP1R (human) (UniProt P43220)
human GCGR (human) = human GCGR (human) (UniProt P47871)
human GIPR (human) = human GIPR (human) (UniProt P48546)
[2] = target: chicken GCRP receptor (chicken)
[3] = target: Xenopus GCRP receptor (Xenopus)
[4] = target: medaka GCRP receptor (medaka)
[5] = target: medaka GCRP receptor (medaka); experiment: radioligand binding; competitive displacement on HEK293T cells transfected with GCRPR (300 ng DNA/well, 12-well plates); 100,000 cpm 125I-chGCRP without or with various concentrations of cold peptides, 1 h, binding buffer (serum-free DMEM with 0.1% BSA, pH 7.4); IC50 by nonlinear regression; remark: listed apart in the source
[6] = target: medaka GCRP receptor (medaka); remark: listed apart in the source
[7] = target: medaka GCRP receptor (medaka); remark: listed apart in the source
[8] = target: chicken GCRP receptor (chicken); experiment: radioligand binding; competitive displacement on HEK293T cells transfected with GCRPR (300 ng DNA/well, 12-well plates); 100,000 cpm 125I-chGCRP without or with various concentrations of cold peptides, 1 h, binding buffer (serum-free DMEM with 0.1% BSA, pH 7.4); IC50 by nonlinear regression
[9] = target: Xenopus GCRP receptor (Xenopus); experiment: as above
[10] = target: chicken GCRP receptor (chicken); remark: listed apart in the source
[11] = target: chimeric chGCRPR/chGLP1R (chicken)
[12] = target: chimeric chGCRPR/huGLP1R (chicken | human) (UniProt P43220)
[13] = target: Xenopus GCRP receptor (Xenopus); experiment: radioligand binding; competitive displacement on HEK293T cells transfected with GCRPR (300 ng DNA/well, 12-well plates); 100,000 cpm 125I-chGCRP without or with various concentrations of cold peptides, 1 h, binding buffer (serum-free DMEM with 0.1% BSA, pH 7.4); IC50 by nonlinear regression; remark: listed apart in the source
[14] = target: Xenopus GCRP receptor (Xenopus); remark: listed apart in the source
human GLP2R (human) = human GLP2R (human) (UniProt O95838)
[15] = target: chicken GCRP receptor (chicken); experiment: radioligand binding; competitive displacement on HEK293T cells transfected with GCRPR (300 ng DNA/well, 12-well plates); 100,000 cpm 125I-chGCRP without or with various concentrations of cold peptides, 1 h, binding buffer (serum-free DMEM with 0.1% BSA, pH 7.4); IC50 by nonlinear regression; remark: listed apart in the source
[16] = target: chicken GCRP receptor (chicken); remark: listed apart in the source

Sequence of human GCGR (human) (P47871 26-477): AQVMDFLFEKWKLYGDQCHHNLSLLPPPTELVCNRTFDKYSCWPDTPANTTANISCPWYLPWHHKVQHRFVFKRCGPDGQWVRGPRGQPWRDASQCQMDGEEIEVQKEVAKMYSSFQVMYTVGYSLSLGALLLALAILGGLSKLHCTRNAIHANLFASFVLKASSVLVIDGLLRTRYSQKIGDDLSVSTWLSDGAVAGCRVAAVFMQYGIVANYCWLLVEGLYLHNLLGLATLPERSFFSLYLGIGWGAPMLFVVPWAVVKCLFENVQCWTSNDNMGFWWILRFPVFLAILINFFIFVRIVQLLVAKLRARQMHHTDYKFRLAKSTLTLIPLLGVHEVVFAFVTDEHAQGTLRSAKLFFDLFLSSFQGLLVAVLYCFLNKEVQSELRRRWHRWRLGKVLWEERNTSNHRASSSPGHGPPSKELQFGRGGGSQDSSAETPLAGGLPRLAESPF
Sequence of human GLP1R (human) (P43220 24-463): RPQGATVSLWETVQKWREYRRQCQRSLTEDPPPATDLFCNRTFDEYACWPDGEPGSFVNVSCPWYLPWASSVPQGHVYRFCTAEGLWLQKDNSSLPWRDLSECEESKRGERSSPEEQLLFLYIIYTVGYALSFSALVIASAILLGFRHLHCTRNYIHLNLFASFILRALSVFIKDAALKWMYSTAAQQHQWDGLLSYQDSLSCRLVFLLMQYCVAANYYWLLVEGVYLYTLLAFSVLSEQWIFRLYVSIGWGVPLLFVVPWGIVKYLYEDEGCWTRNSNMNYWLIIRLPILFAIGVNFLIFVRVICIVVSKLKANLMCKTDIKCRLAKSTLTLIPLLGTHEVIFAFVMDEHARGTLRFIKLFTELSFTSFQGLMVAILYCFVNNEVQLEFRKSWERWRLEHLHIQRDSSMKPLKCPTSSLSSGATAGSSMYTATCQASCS
Sequence of human GIPR (human) (P48546 22-466): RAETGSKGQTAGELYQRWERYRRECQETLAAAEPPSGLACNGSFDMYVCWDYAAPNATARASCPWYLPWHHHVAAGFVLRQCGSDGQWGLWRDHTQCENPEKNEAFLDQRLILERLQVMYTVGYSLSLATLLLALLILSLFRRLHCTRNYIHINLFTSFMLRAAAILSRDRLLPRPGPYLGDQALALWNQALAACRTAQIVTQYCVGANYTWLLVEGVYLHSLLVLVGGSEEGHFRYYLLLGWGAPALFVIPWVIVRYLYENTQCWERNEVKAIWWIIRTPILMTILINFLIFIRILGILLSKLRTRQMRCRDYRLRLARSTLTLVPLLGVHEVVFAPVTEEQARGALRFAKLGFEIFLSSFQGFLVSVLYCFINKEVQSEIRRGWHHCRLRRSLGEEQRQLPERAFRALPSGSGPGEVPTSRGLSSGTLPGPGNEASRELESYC
Sequence of chimeric chGCRPR/huGLP1R (chicken | human) (P43220 whole entry, change not shown): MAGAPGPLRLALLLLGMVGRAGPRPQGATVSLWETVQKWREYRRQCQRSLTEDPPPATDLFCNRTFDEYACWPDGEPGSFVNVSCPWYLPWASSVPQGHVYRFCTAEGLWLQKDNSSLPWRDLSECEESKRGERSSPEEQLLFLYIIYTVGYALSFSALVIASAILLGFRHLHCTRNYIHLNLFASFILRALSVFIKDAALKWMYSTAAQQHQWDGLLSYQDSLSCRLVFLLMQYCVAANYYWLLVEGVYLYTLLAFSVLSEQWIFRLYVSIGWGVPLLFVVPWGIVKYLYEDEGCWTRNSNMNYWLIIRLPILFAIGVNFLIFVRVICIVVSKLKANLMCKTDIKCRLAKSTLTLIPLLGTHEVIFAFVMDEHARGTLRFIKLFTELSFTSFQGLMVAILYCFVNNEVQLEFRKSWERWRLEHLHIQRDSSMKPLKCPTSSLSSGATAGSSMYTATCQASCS
Sequence of human GLP2R (human) (O95838 whole entry): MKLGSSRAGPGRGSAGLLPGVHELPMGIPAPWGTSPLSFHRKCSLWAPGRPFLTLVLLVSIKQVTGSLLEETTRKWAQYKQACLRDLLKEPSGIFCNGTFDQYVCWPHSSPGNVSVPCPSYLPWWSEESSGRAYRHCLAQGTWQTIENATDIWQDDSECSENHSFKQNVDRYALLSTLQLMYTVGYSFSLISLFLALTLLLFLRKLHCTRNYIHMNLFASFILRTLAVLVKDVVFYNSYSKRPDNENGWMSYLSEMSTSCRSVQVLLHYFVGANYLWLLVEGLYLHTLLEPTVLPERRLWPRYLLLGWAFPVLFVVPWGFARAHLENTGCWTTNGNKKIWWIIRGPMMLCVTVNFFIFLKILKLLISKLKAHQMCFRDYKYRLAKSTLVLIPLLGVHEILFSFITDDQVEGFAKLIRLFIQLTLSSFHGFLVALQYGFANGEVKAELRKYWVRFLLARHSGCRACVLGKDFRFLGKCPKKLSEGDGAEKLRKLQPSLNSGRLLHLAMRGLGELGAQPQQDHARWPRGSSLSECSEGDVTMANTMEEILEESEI

| Binder | CRE-luc reporter, HEK293T cells with the receptor: EC50 (human GLP1R (human)) [nM] | CRE-luc reporter, HEK293T cells with the receptor: Emax (fold induction) (human GLP1R (human)) | CRE-luc reporter, HEK293T cells with the receptor: EC50 (human GCGR (human)) [nM] | CRE-luc reporter, HEK293T cells with the receptor: Emax (fold induction) (human GCGR (human)) | CRE-luc reporter, HEK293T cells with the receptor: Emax (fold induction) (human GIPR (human)) | CRE-luc reporter, HEK293T cells with the receptor: EC50 [2] [nM] | CRE-luc reporter, HEK293T cells with the receptor: Emax (fold induction) [2] | CRE-luc reporter, HEK293T cells with the receptor: EC50 [3] [nM] | CRE-luc reporter, HEK293T cells with the receptor: Emax (fold induction) [3] | CRE-luc reporter, HEK293T cells with the receptor: EC50 [4] [nM] | CRE-luc reporter, HEK293T cells with the receptor: Emax (fold induction) [4] | further results |
| --- | --- | --- | --- | --- | --- | --- | --- | --- | --- | --- | --- | --- |
| B1 | 156 | 20.9 | 175 | 2.27 | 2.11 | 68.2 | 6.93 | 94.6 | 32 | 6.84 | 7.9 | IC50 [1]: 327 nM; IC50 [5]: 320 nM; CRE-luc reporter, HEK293T cells with the receptor: EC50 [6]: 6.76 nM; cAMP level by Glosensor-22F luminescence in HEK293T cells with the receptor: EC50 [7]: 1.15 nM |
| B2 |  |  |  |  | 5.21 |  |  |  |  |  |  |  |
| B3 |  |  |  |  |  |  |  |  |  |  |  | IC50 [8]: > 1000 nM; IC50 [9]: > 1000 nM; CRE-luc reporter, HEK293T cells with the receptor: EC50 [10]: 18.3 nM; CRE-luc reporter, HEK293T cells with the receptor: Emax (fold induction) [10]: 5.8; CRE-luc reporter, HEK293T cells with the receptor: EC50 [11]: 1.52 nM; CRE-luc reporter, HEK293T cells with the receptor: Emax (fold induction) [11]: 12.6; CRE-luc reporter, HEK293T cells with the receptor: EC50 (chicken GLP1R (chicken)): 0.2 nM; CRE-luc reporter, HEK293T cells with the receptor: Emax (fold induction) (chicken GLP1R (chicken)): 28.2; CRE-luc reporter, HEK293T cells with the receptor: EC50 [12]: 2.29 nM; CRE-luc reporter, HEK293T cells with the receptor: Emax (fold induction) [12]: 91.9 |
| B4 | > 1000 | 24.1 | 182 | 2.09 | 1.95 | 1.18 | 6.25 | 2.24 | 30.4 | 30.6 | 8.1 | IC50 [9]: 65.5 nM; IC50 [13]: 63 nM; cAMP level by Glosensor-22F luminescence in HEK293T cells with the receptor: EC50 [14]: 46 nM |
| B5 |  |  |  |  |  | 33.4 | 6.26 |  |  |  |  |  |
| B6 | 48.9 | 19.8 | 42.7 | 6.32 | 3.03 | 0.87 | 6 | 5.86 | 30.1 | 33.7 | 8.12 | IC50 [8]: 43.5 nM; CRE-luc reporter, HEK293T cells with the receptor: EC50 [10]: 0.32 nM; CRE-luc reporter, HEK293T cells with the receptor: Emax (fold induction) [10]: 5.56; CRE-luc reporter, HEK293T cells with the receptor: EC50 [11]: 8.57 nM; CRE-luc reporter, HEK293T cells with the receptor: Emax (fold induction) [11]: 7.3; CRE-luc reporter, HEK293T cells with the receptor: EC50 (chicken GLP1R (chicken)): 8.03 nM; CRE-luc reporter, HEK293T cells with the receptor: Emax (fold induction) (chicken GLP1R (chicken)): 19.2; CRE-luc reporter, HEK293T cells with the receptor: EC50 [12]: 9.44 nM; CRE-luc reporter, HEK293T cells with the receptor: Emax (fold induction) [12]: 62.9; CRE-luc reporter, HEK293T cells with the receptor: EC50 (human GLP2R (human)): 592 nM; CRE-luc reporter, HEK293T cells with the receptor: Emax (fold induction) (human GLP2R (human)): 6.32; IC50 [15]: 43.6 nM; cAMP level by Glosensor-22F luminescence in HEK293T cells with the receptor: EC50 [16]: 5.8 nM |
| B7 |  |  |  |  |  |  |  |  |  | 108 | 4.26 |  |
| B8 |  |  |  |  |  | 69.2 | 6.22 | 274 | 32.4 |  |  |  |
